Test results taken from paper PMC428907.

Tests used:
purified protein [1] = substrate: Nc1nc2c([nH]c(=O)n2[C@H]2C[C@H](O)[C@@H](COP(=O)(O)OP(=O)(O)O)O2)c(=O)[nH]1; assay: purified protein; details: pH 9.4, 7.5 mM Mg2+ (optimal conditions), 37°C
purified protein [2] = substrate: Nc1nc2c(ncn2[C@H]2C[C@H](O)[C@@H](CO[P@](=O)(O)OP(=O)(O)O)O2)c(=O)[nH]1; assay: purified protein; details: pH 9.4, 7.5 mM Mg2+ (optimal conditions), 37°C

B1: DR0975 protein (Deinococcus radiodurans R1 = ATCC 13939 = DSM 20539) (protein)
chain: MGRRDLLVAAGILRDRFGRVLLVGNDWQGHGRVRHTLPGGVVEHGETLPEALYREIYEETGLKLTGIKHMAYTVHIEDERRGERAIAVAFEATWEGLLNPADPDGFIVEARFCTVDEALDKLDSPPMREPLADYLNTGEPGRFYAFKGWDGRGGLRIPTLKPVVKDR
B1 gave a Km (purified protein [1]) of 170 µM, a kcat (purified protein [1]) of 0.13 s⁻¹ and a Km (purified protein [2]) of 110 µM. The kcat (purified protein [2]) was 0.18 s⁻¹.
